Data on 4 molecules can be found in patent US20190077860A1 (EISAI R AND D MANAGEMENT, published 2019).

Common to all, as to test: ELISA
In general terms: In an ELISA, binding on a coated surface is turned into a signal by an enzyme label.

The target in one experiment is SEAP-His (UniProt P05187 23-511).
The target in experiment [1] is T1, human EphA1 extracellular region-SEAP-His protein (human, UniProt P21709 26-547).
T1 construct: extracellular domain; also called hEphA1-SEAP-His
T1 sequence (looked up): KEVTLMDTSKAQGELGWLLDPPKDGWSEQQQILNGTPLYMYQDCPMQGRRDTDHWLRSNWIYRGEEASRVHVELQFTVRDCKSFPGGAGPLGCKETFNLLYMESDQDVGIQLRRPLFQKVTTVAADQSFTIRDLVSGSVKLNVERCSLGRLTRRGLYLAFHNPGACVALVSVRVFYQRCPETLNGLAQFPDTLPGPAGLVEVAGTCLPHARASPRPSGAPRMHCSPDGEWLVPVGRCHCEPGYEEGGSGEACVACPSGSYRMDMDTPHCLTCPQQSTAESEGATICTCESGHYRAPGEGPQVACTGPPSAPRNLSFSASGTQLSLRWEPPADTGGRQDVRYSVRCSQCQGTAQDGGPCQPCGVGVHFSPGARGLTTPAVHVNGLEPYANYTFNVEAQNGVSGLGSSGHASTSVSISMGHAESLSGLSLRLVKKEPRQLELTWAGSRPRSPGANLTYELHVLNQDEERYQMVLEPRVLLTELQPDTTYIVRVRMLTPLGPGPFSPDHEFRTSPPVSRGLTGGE

Experiment [2] concerns the target T2, human EphA5 extracellular region-SEAP-His protein (human, UniProt P54756 25-573).
T2 construct: extracellular domain; also called hEphA5-SEAP-His

The target of experiment [3] is T3, human EphA7 extracellular region-SEAP-His protein (human, UniProt Q15375 28-555).
T3 construct: extracellular domain; also called hEphA7-SEAP-His
T3 sequence (looked up): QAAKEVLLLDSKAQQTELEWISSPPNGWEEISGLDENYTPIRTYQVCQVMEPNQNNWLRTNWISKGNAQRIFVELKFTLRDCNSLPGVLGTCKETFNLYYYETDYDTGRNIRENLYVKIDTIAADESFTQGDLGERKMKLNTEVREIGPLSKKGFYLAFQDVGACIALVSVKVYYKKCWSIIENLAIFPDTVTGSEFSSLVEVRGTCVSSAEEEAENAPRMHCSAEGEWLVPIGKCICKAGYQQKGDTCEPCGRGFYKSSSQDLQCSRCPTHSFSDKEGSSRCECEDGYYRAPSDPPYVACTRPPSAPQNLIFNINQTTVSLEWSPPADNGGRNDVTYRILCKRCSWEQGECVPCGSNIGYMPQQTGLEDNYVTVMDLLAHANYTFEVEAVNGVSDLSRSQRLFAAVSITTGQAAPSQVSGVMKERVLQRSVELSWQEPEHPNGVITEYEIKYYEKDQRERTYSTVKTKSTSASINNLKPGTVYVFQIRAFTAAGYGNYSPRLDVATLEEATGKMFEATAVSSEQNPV

The target in experiment [4] is T4, human EphB3 extracellular region-SEAP-His protein (human, UniProt P54753 34-559).
T4 construct: extracellular domain; also called hEphB3-SEAP-His
T4 sequence (looked up): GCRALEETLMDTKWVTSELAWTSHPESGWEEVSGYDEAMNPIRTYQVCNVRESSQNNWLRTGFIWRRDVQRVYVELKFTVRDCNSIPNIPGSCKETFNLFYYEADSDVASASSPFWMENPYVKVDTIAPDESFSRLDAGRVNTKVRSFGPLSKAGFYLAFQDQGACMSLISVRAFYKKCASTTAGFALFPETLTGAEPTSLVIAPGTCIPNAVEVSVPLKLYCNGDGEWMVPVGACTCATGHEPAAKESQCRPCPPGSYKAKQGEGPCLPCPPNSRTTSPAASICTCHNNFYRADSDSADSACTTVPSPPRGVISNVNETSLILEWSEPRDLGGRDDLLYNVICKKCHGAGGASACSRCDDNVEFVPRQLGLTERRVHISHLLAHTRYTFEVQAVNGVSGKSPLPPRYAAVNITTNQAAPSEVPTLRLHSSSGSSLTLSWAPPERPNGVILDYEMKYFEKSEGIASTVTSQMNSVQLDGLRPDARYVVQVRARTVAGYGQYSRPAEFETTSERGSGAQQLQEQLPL

Experiment [5] concerns the target T5, human EphB6 extracellular region-SEAP-His protein (human, UniProt O15197 32-594).
T5 construct: extracellular domain; also called hEphB6-SEAP-His
T5 sequence (looked up): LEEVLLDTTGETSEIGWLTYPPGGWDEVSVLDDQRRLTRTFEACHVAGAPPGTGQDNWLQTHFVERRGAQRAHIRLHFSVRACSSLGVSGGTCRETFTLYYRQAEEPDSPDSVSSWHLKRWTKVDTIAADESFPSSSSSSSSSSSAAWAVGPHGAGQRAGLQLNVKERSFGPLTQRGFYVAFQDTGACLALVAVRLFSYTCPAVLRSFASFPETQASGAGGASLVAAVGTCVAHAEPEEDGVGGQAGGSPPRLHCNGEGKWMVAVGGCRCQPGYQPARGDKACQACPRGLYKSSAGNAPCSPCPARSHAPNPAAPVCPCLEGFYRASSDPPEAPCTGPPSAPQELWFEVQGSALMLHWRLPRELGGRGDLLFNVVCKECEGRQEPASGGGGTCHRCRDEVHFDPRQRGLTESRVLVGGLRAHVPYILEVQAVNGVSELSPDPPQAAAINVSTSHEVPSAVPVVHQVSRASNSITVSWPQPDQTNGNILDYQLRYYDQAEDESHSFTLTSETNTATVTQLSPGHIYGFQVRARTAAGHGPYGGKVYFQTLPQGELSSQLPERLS

T2 sequence (P54756 25-573): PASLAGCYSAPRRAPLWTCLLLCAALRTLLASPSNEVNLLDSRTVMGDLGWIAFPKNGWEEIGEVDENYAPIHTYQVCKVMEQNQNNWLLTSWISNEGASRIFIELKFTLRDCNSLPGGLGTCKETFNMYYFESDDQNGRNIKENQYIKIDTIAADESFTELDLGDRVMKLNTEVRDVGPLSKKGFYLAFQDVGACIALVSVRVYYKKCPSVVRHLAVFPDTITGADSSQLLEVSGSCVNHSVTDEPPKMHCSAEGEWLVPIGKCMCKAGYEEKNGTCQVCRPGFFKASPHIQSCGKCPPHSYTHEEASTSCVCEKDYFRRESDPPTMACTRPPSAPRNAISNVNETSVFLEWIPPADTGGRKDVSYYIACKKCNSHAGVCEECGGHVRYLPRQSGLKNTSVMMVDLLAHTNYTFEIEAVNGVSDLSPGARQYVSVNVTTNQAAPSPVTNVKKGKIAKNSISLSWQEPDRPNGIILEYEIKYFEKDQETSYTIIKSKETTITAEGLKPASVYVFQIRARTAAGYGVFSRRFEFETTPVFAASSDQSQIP
SEAP-His, sequence (P05187 23-511): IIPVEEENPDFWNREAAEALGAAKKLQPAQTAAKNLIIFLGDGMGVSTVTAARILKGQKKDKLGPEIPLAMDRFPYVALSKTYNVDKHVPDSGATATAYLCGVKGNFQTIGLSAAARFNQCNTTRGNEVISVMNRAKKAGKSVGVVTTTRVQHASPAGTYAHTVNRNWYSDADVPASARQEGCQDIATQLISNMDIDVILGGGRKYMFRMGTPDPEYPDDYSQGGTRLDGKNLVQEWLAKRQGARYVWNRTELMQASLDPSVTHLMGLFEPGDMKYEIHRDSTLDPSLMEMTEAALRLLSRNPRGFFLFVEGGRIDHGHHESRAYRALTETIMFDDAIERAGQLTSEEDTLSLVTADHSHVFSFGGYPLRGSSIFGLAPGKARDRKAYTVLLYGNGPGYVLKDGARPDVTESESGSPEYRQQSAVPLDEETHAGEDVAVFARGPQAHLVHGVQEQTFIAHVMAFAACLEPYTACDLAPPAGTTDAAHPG

B1: humanized antibody No. 157 (antibody, human IgG2)
heavy: QVQLVQSGSELKKPGASVKVSCKASGYTFTDYSMHWVRQAPGQGLEWMGWINTETGEPTYAQGFTGRFVFSLDTSVSTAYLQISSLKAEDTAVYYCARIPLYYYGSRYWYFDVWGQGTTVTVSSASTKGPSVFPLAPSSRSTSESTAALGCLVKDYFPEPVTVSWNSGALTSGVHTFPAVLQSSGLYSLSSVVTVPSSNFGTQTYTCNVDHKPSNTKVDKTVERKSCVECPPCPAPPAAAPSVFLFPPKPKDTLMISRTPEVTCVVVDVSHEDPEVQFNWYVDGVEVHNAKTKPREEQFNSTFRVVSVLTVVHQDWLNGKEYKCKVSNKGLPAPIEKTISKTKGQPREPQVYTLPPSREEMTKNQVSLTCLVKGFYPSDIAVEWESNGQPENNYKTTPPMLDSDGSFFLYSKLTVDKSRWQQGNVFSCSVMHEALHNHYTQKSLSLSPG
light: DIQMTQSPSSLSASVGDRVTITCRASENIYRNLAWYQQKPGKAPQLLLYAATNLADGVPSRFSGSGSGTDYTLTISSLQPEDFATYYCQHFWGTPWTFGQGTKVEIKRTVAAPSVFIFPPSDEQLKSGTASVVCLLNNFYPREAKVQWKVDNALQSGNSQESVTEQDSKDSTYSLSSTLTLSKADYEKHKVYACEVTHQGLSSPVTKSFNRGEC
notes: human Ig kappa; also called L1-6/HA1
Take B1: the “A450 as % of hEphA4-SEAP-His” value stood at 6.1% in the experiment with SEAP-His; 6.2% in experiment [1]; 6.1% in experiment [2]; 6% in experiment [3]; 6.4% in experiment [4]; 6.3% in experiment [5].

B2: humanized antibody No. 158 (antibody, human IgG2)
heavy: QVQLVQSGSELKKPGASVKVSCKASGYTFTDYSMHWVRQAPGQGLKWMGWINTETGEPTYAQGFTGRFVFSLDTSVSTAYLQISSLKAEDTAVYYCARIPLYYYGSRYWYFDVWGQGTTVTVSSASTKGPSVFPLAPSSRSTSESTAALGCLVKDYFPEPVTVSWNSGALTSGVHTFPAVLQSSGLYSLSSVVTVPSSNFGTQTYTCNVDHKPSNTKVDKTVERKSCVECPPCPAPPAAAPSVFLFPPKPKDTLMISRTPEVTCVVVDVSHEDPEVQFNWYVDGVEVHNAKTKPREEQFNSTFRVVSVLTVVHQDWLNGKEYKCKVSNKGLPAPIEKTISKTKGQPREPQVYTLPPSREEMTKNQVSLTCLVKGFYPSDIAVEWESNGQPENNYKTTPPMLDSDGSFFLYSKLTVDKSRWQQGNVFSCSVMHEALHNHYTQKSLSLSPG
light: DIQMTQSPSSLSASVGDRVTITCRASENIYRNLAWYQQKPGKAPQLLLYAATNLADGVPSRFSGSGSGTDYTLTISSLQPEDFATYYCQHFWGTPWTFGQGTKVEIKRTVAAPSVFIFPPSDEQLKSGTASVVCLLNNFYPREAKVQWKVDNALQSGNSQESVTEQDSKDSTYSLSSTLTLSKADYEKHKVYACEVTHQGLSSPVTKSFNRGEC
notes: human Ig kappa; also called L1-6/HA2
As to B2, the “A450 as % of hEphA4-SEAP-His” value with SEAP-His is 6.3%; in experiment [1] it was 6.5%; in experiment [2], 6.7%; in experiment [3] it was 6.3%; in experiment [4], 6.5%; in experiment [5], 6.3%.

B3: humanized antibody No. 159 (antibody, human IgG2)
heavy: QVQLVQSGSELKKPGASVKVSCKASGYTFTDYSMHWVRQAPGQGLKWMGWINTETGEPTYADDFKGRFVFSLDTSVSTAYLQISSLKAEDTAVYYCARIPLYYYGSRYWYFDVWGQGTTVTVSSASTKGPSVFPLAPSSRSTSESTAALGCLVKDYFPEPVTVSWNSGALTSGVHTFPAVLQSSGLYSLSSVVTVPSSNFGTQTYTCNVDHKPSNTKVDKTVERKSCVECPPCPAPPAAAPSVFLFPPKPKDTLMISRTPEVTCVVVDVSHEDPEVQFNWYVDGVEVHNAKTKPREEQFNSTFRVVSVLTVVHQDWLNGKEYKCKVSNKGLPAPIEKTISKTKGQPREPQVYTLPPSREEMTKNQVSLTCLVKGFYPSDIAVEWESNGQPENNYKTTPPMLDSDGSFFLYSKLTVDKSRWQQGNVFSCSVMHEALHNHYTQKSLSLSPG
light: DIQMTQSPSSLSASVGDRVTITCRASENIYRNLAWYQQKPGKAPQLLLYAATNLADGVPSRFSGSGSGTDYTLTISSLQPEDFATYYCQHFWGTPWTFGQGTKVEIKRTVAAPSVFIFPPSDEQLKSGTASVVCLLNNFYPREAKVQWKVDNALQSGNSQESVTEQDSKDSTYSLSSTLTLSKADYEKHKVYACEVTHQGLSSPVTKSFNRGEC
notes: human Ig kappa; also called L1-6/HK2
B3: the “A450 as % of hEphA4-SEAP-His” value turned out to be 5.3% with SEAP-His; 5.4% in experiment [1]; 5.5% in experiment [2]; 5.5% in experiment [3]; 5.5% in experiment [4]; 5.5% in experiment [5].

B4: humanized antibody No. 160 (antibody, human IgG2)
heavy: QIQLVQSGSELKKPGASVKVSCKASGYTFTDYSMHWVRQAPGQGLKWMGWINTETGEPTYADDFKGRFVFSLDTSVSTAYLQISSLKAEDTAVYYCARIPLYYYGSRYWYFDVWGQGTTVTVSSASTKGPSVFPLAPSSRSTSESTAALGCLVKDYFPEPVTVSWNSGALTSGVHTFPAVLQSSGLYSLSSVVTVPSSNFGTQTYTCNVDHKPSNTKVDKTVERKSCVECPPCPAPPAAAPSVFLFPPKPKDTLMISRTPEVTCVVVDVSHEDPEVQFNWYVDGVEVHNAKTKPREEQFNSTFRVVSVLTVVHQDWLNGKEYKCKVSNKGLPAPIEKTISKTKGQPREPQVYTLPPSREEMTKNQVSLTCLVKGFYPSDIAVEWESNGQPENNYKTTPPMLDSDGSFFLYSKLTVDKSRWQQGNVFSCSVMHEALHNHYTQKSLSLSPG
light: DIQMTQSPSSLSASVGDRVTITCRASENIYRNLAWYQQKPGKAPQLLLYAATNLADGVPSRFSGSGSGTDYTLTISSLQPEDFATYYCQHFWGTPWTFGQGTKVEIKRTVAAPSVFIFPPSDEQLKSGTASVVCLLNNFYPREAKVQWKVDNALQSGNSQESVTEQDSKDSTYSLSSTLTLSKADYEKHKVYACEVTHQGLSSPVTKSFNRGEC
notes: human Ig kappa; also called L1-6/HK4
In the case of B4, the “A450 as % of hEphA4-SEAP-His” value with SEAP-His was 6.3%; in experiment [1], 6.5%; in experiment [2], 6.5%; in experiment [3] it was 6.1%; in experiment [4], 6.2%; in experiment [5], 6.2%.
